The record followed here is patent publication US7910549 (INSTITUTE OF VIROLOGY OF THE SLOVAK ACADEMY OF SCIENCES, dated 2011).

B1: oligopeptide … (aa 75-98) [SEQ ID NO: 106] (peptide)
peptide: EDPPGEEDLPGEEDLPGEEDLPEV
B2: nonapeptide ASASAPVSA [SEQ ID NO: 139] (peptide)
peptide: ASASAPVSA-NH2
notes: Synthetic; phage-selected heptapeptide with alanine added on both sides
B3: nonapeptide AITFNAQYA [SEQ ID NO: 138] (peptide)
peptide: AITFNAQYA-NH2
notes: as for B2
B4: nonapeptide AKKMKRRKA [SEQ ID NO: 137] (peptide)
peptide: AKKMKRRKA-NH2
notes: as for B2

Where no end group is shown, it is not given here.

Experiment [1] addresses B1. The experiment in a line: phage display (Ph.D.-7): panning on immobilized peptide SEQ ID NO: 106, elution with M75, 5 cycles.
The target of experiment [2] is T1, GST-MN fusion protein (MN glutathione S-transferase), expressed in bacteria from pGEX-3X-MN (human, UniProt Q16790 38-459). Briefly: phage display panning on GST-MN, elution with acetazolamide.
The target of experiment [3] is T2, monoclonal antibody M75 (MAb M75), secreted by hybridoma VU-M75, ATCC HB 11128.
T2 construct: Mouse IgG; used as ascites fluid in the ELISA and in the cell adhesion tests; also called MAb 75
Briefly: competition ELISA (peptide against immobilized GST-MN for M75).

Experiment [4] concerns the target T1, GST-MN fusion protein (MN glutathione …). The experiment in a line: competition ELISA on immobilized GST-MN; competitor M75.
The target is the same in experiment [5]. The experiment in a line: phage display (Ph.D.-7): panning on wells coated with GST-MN, elution by acetazolamide, 3 rounds.

As to ITFNAQY, the binding result in experiment [1] is given as “binds”.

Turning to KKMKRRK, the binding result in experiment [1] was “binds”.

Consider GQTRSPL [phage-displayed heptapeptide GQTRSPL (SEQ ID NO: 109)], for which the binding result in experiment [2] is listed as “binds”.

For the molecule B1, the IC50 (as a rule, the concentration at which inhibition is half-maximal) in experiment [3] amounted to 1 ng/mL.

Take B2: the binding result in experiment [4] was “binds”.

For the molecule SASAPVS, the binding result in experiment [1] is on record as “binds”.

As to GETRAPL [phage-displayed heptapeptide GETRAPL (SEQ ID NO: 107)], the binding result in experiment [5] was “binds”.

On to GETREPL [phage-displayed heptapeptide GETREPL (SEQ ID NO: 108)], for which, in experiment [5], the binding result is reported as “binds”.

Consider B3, for which, in experiment [4], the binding result is on record as “binds”.

In the case of B4, in experiment [4], the binding result was “binds”.
